Measured values from PMC9482650, “Quantitative fragmentomics allow affinity mapping of interactomes” (Nature Communications, 2022).

T1: CARD11, Q9BXL7
T1 sequence (Q9BXL7 662-765, limits assumed, looked up): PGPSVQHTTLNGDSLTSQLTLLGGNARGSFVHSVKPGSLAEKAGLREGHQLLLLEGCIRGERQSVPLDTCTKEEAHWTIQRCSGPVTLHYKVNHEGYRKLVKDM

T2: GRIP1_2, Q9Y3R0
T2 sequence (Q9Y3R0 145-248, limits assumed, looked up): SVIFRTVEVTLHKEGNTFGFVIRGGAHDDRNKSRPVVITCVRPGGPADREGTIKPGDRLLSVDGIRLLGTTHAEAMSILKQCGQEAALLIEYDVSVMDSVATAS

T3: HTRA4, P83105
T3 sequence (P83105 378-476, limits assumed, looked up): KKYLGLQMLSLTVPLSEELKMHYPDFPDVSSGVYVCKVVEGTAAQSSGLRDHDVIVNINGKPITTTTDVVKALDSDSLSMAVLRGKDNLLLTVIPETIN

T4: NHERF3_3, Q5T2W1
T4 sequence (Q5T2W1 238-333, limits assumed, looked up): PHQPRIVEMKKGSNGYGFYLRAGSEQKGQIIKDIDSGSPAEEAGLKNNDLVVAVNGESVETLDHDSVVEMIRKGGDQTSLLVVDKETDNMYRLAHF

T5: NHERF3_4, Q5T2W1
T5 sequence (Q5T2W1 373-468, limits assumed, looked up): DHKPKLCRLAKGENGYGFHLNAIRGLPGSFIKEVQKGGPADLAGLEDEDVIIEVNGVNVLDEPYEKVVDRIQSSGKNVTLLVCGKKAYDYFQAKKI

T6: PDZD2_2, O15018
T6 sequence (O15018 329-429, limits assumed, looked up): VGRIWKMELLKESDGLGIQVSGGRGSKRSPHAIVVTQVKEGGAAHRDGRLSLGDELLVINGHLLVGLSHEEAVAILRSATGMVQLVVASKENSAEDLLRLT

T7: SIPA1L2, Q9P2F8
T7 sequence (Q9P2F8 945-1036, limits assumed, looked up): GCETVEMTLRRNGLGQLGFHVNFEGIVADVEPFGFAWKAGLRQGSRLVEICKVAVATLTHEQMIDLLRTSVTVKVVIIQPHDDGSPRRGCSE

T8: SNTA1, Q13424
T8 sequence (Q13424 82-180, limits assumed, looked up): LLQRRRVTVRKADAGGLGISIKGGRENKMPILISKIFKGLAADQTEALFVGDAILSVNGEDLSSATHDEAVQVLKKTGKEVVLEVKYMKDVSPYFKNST

T9: SNTG1, Q9NSN8
T9 sequence (Q9NSN8 52-150, limits assumed, looked up): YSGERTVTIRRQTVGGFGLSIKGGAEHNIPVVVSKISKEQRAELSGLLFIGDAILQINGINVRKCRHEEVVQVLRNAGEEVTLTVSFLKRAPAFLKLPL

T10: TJP3_3, O95049
T10 sequence (O95049 375-456, limits assumed, looked up): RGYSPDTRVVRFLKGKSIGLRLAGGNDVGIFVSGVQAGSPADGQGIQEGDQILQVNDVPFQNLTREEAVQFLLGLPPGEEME


Assays:
Test in all cases: holdup assay
Design in all cases: key: below the threshold = too weak to quantify, mostly under pKd 3.1 to 4
Settings in all cases: plain residues with an end cap or a label only (N-terminal biotin on a linker: ado-ado)
CARD11, Q9BXL7 = biological target: T1, CARD11, Q9BXL7
CASK, O14936 = biological target: CASK, O14936
DLG2_2, Q15700 = biological target: DLG2_2, Q15700
FRMPD2_1, Q68DX3 = biological target: FRMPD2_1, Q68DX3
GOPC, Q9HD26 = biological target: GOPC, Q9HD26
GRIP1_2, Q9Y3R0 = biological target: T2, GRIP1_2, Q9Y3R0
GRIP2_3, Q9C0E4 = biological target: GRIP2_3, Q9C0E4
GRIP2_4, Q9C0E4 = biological target: GRIP2_4, Q9C0E4
HTRA1, Q92743 = biological target: HTRA1, Q92743
HTRA4, P83105 = biological target: T3, HTRA4, P83105
Inadl_5, Q8NI35 = biological target: Inadl_5, Q8NI35
Inadl_6, Q8NI35 = biological target: Inadl_6, Q8NI35
LDB3, O75112 = biological target: LDB3, O75112
LNX1_3, Q8TBB1 = biological target: LNX1_3, Q8TBB1
MAGI2_3, Q86UL8 = biological target: MAGI2_3, Q86UL8
MAGI2_4, Q86UL8 = biological target: MAGI2_4, Q86UL8
MAGI2_5, Q86UL8 = biological target: MAGI2_5, Q86UL8
MAST1, Q9Y2H9 = biological target: MAST1, Q9Y2H9
NHERF3_3, Q5T2W1 = biological target: T4, NHERF3_3, Q5T2W1
NHERF3_4, Q5T2W1 = biological target: T5, NHERF3_4, Q5T2W1
NHERF4_2, Q86UT5 = biological target: NHERF4_2, Q86UT5
PDZD2_2, O15018 = biological target: T6, PDZD2_2, O15018
PICK1, Q9NRD5 = biological target: PICK1, Q9NRD5
PTPN3, P26045 = biological target: PTPN3, P26045
SCRIB_2, Q14160 = biological target: SCRIB_2, Q14160
SIPA1L2, Q9P2F8 = biological target: T7, SIPA1L2, Q9P2F8
SNTA1, Q13424 = biological target: T8, SNTA1, Q13424
SNTG1, Q9NSN8 = biological target: T9, SNTG1, Q9NSN8
TJP3_3, O95049 = biological target: T10, TJP3_3, O95049

Chain of MAST1, Q9Y2H9 (Q9Y2H9 962-1065): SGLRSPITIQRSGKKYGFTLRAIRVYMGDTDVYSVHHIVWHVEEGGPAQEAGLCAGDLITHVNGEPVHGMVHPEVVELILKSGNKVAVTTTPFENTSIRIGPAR
Chain of FRMPD2_1, Q68DX3 (Q68DX3 770-861): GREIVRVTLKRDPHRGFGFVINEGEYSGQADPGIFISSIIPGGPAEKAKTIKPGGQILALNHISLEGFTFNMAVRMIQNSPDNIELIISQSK
Chain of SCRIB_2, Q14160 (Q14160 857-960): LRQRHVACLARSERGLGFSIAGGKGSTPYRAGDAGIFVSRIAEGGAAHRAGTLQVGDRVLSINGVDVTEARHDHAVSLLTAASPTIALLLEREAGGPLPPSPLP
Chain of MAGI2_3, Q86UL8 (Q86UL8 600-682): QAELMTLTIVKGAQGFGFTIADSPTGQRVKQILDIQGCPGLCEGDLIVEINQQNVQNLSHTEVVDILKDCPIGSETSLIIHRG
Chain of GRIP2_3, Q9C0E4 (Q9C0E4 238-339): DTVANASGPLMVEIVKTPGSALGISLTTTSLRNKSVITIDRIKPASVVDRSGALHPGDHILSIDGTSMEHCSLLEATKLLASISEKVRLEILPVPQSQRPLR
Chain of LDB3, O75112 (O75112 1-94): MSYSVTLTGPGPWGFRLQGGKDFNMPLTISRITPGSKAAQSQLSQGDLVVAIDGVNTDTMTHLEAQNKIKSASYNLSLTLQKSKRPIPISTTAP
Chain of MAGI2_5, Q86UL8 (Q86UL8 915-1017): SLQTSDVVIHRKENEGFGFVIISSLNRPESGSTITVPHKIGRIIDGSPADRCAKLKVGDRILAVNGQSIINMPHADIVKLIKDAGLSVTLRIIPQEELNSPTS
Chain of PTPN3, P26045 (P26045 505-587): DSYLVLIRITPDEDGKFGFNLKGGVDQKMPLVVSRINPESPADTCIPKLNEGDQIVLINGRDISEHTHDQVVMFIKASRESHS
Chain of HTRA1, Q92743 (Q92743 360-477): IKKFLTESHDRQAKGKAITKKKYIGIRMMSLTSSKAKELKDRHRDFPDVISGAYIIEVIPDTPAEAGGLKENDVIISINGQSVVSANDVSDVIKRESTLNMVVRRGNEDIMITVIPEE
Chain of LNX1_3, Q8TBB1 (Q8TBB1 500-596): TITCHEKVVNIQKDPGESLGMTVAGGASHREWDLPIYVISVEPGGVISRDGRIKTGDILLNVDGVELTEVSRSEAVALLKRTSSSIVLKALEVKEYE
Chain of NHERF4_2, Q86UT5 (Q86UT5 220-308): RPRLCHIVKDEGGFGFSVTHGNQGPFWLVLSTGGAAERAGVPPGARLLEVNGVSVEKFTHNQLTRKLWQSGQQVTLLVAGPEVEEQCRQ
Chain of Inadl_6, Q8NI35 (Q8NI35 1058-1167): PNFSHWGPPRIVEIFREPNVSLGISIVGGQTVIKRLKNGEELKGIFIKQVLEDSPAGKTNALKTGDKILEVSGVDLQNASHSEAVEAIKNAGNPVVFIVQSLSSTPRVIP
Chain of DLG2_2, Q15700 (Q15700 189-283): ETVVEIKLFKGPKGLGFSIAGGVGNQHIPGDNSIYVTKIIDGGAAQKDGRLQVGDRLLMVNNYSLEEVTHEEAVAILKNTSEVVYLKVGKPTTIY
Chain of CASK, O14936 (O14936 487-570): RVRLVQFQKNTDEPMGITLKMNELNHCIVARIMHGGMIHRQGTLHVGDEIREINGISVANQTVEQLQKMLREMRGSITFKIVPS
Chain of MAGI2_4, Q86UL8 (Q86UL8 772-865): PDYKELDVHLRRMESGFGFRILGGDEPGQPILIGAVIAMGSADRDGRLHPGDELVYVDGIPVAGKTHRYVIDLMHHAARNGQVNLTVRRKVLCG
Chain of GRIP2_4, Q9C0E4 (Q9C0E4 446-548): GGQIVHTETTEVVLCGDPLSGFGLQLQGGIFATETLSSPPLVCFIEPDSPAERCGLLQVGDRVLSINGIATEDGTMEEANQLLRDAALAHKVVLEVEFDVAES
Chain of PICK1, Q9NRD5 (Q9NRD5 17-115): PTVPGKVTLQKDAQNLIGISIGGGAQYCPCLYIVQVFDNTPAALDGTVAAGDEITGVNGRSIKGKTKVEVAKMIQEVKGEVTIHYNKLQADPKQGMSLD
Chain of Inadl_5, Q8NI35 (Q8NI35 673-780): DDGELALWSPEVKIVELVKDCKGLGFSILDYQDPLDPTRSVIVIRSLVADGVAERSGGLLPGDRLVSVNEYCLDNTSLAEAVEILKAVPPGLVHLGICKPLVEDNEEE

Row | Binder | pKd (CARD11, Q9BXL7) | pKd (CASK, O14936) | pKd (DLG2_2, Q15700) | pKd (FRMPD2_1, Q68DX3) | pKd (GOPC, Q9HD26) | pKd (GRIP1_2, Q9Y3R0) | pKd (GRIP2_3, Q9C0E4) | pKd (GRIP2_4, Q9C0E4) | pKd (HTRA1, Q92743) | pKd (HTRA4, P83105) | pKd (Inadl_5, Q8NI35) | pKd (Inadl_6, Q8NI35) | pKd (LDB3, O75112) | pKd (LNX1_3, Q8TBB1) | pKd (MAGI2_3, Q86UL8) | pKd (MAGI2_4, Q86UL8) | pKd (MAGI2_5, Q86UL8) | pKd (MAST1, Q9Y2H9) | pKd (NHERF3_3, Q5T2W1) | pKd (NHERF3_4, Q5T2W1) | also measured
1 | MQILSKPEFI [NPSR1, Q6W5P4] | below the threshold | below the threshold | below the threshold | below the threshold | below the threshold | below the threshold | below the threshold | below the threshold | 4.15 | 4.38 | 3.53 | below the threshold | below the threshold | below the threshold | below the threshold | below the threshold | below the threshold | 3.68 | below the threshold | 3.51 | pKd (NHERF4_2, Q86UT5): below the threshold; pKd (PDZD2_2, O15018): 3.62; pKd (PICK1, Q9NRD5): 4.08; pKd (PTPN3, P26045): 3.94; pKd (SCRIB_2, Q14160): below the threshold; pKd (SIPA1L2, Q9P2F8): below the threshold; pKd (SNTA1, Q13424): below the threshold; pKd (SNTG1, Q9NSN8): below the threshold; pKd (TJP3_3, O95049): below the threshold
2 | KEKASTETEC [TRPM1, Q7Z4N2] | below the threshold | below the threshold | 3.52 | below the threshold | below the threshold | below the threshold | below the threshold | below the threshold | 3.62 | below the threshold | below the threshold | below the threshold | below the threshold | below the threshold | below the threshold | below the threshold | below the threshold | 4.09 | below the threshold | below the threshold | pKd (NHERF4_2, Q86UT5): below the threshold; pKd (PDZD2_2, O15018): below the threshold; pKd (PICK1, Q9NRD5): below the threshold; pKd (PTPN3, P26045): 4.9; pKd (SCRIB_2, Q14160): 3.52; pKd (SIPA1L2, Q9P2F8): below the threshold; pKd (SNTA1, Q13424): 3.77; pKd (SNTG1, Q9NSN8): below the threshold; pKd (TJP3_3, O95049): below the threshold
3 | STYCDYTIEI [FAM71C, Q8NEG0] | below the threshold | 3.67 | below the threshold | below the threshold | below the threshold | 3.53 | below the threshold | below the threshold | 5.38 | 4.96 | below the threshold | below the threshold | below the threshold | below the threshold | below the threshold | below the threshold | below the threshold | 4.47 | below the threshold | below the threshold | pKd (NHERF4_2, Q86UT5): 3.51; pKd (PDZD2_2, O15018): 4.69; pKd (PICK1, Q9NRD5): below the threshold; pKd (PTPN3, P26045): 4.16; pKd (SCRIB_2, Q14160): below the threshold; pKd (SIPA1L2, Q9P2F8): below the threshold; pKd (SNTA1, Q13424): below the threshold; pKd (SNTG1, Q9NSN8): below the threshold; pKd (TJP3_3, O95049): below the threshold
4 | PLPPEEESWV [GAS2L2, Q8NHY3] | below the threshold | below the threshold | 4.19 | below the threshold | below the threshold | 3.8 | below the threshold | below the threshold | 5.14 | 3.59 | 4.29 | 5.43 | below the threshold | below the threshold | 4.13 | 4.07 | 4.92 | below the threshold | below the threshold | below the threshold | pKd (NHERF4_2, Q86UT5): below the threshold; pKd (PDZD2_2, O15018): 6.13; pKd (PICK1, Q9NRD5): below the threshold; pKd (PTPN3, P26045): 4.75; pKd (SCRIB_2, Q14160): 4.94; pKd (SIPA1L2, Q9P2F8): below the threshold; pKd (SNTA1, Q13424): 4.6; pKd (SNTG1, Q9NSN8): 5.6; pKd (TJP3_3, O95049): 4.98
5 | KIEDVEITLV [FCHSD2, O94868] | below the threshold | below the threshold | 3.74 | below the threshold | 4.09 | below the threshold | below the threshold | below the threshold | 5.5 | 4.54 | below the threshold | 4.23 | below the threshold | below the threshold | 4.52 | 4.07 | 5.47 | 4.16 | below the threshold | below the threshold | pKd (NHERF4_2, Q86UT5): below the threshold; pKd (PDZD2_2, O15018): 4.64; pKd (PICK1, Q9NRD5): below the threshold; pKd (PTPN3, P26045): 3.5; pKd (SCRIB_2, Q14160): below the threshold; pKd (SIPA1L2, Q9P2F8): below the threshold; pKd (SNTA1, Q13424): 3.76; pKd (SNTG1, Q9NSN8): 4.14; pKd (TJP3_3, O95049): below the threshold
